Measured values from the Human Domainome abundance scans (Beltran et al. 2025).
± gives the uncertainty stated by the source.

B1: Spectrin alpha chain, erythrocytic 1, residues 979 to 1036; numbered along this chain, P02549 (parent)
chain: EQRVMALYDFQARSPREVTMKKGDVLTLLSSINKDWWKVEAADHQGIVPAVYVRRLAH

Variants of: B1
Experiment: abundance fitness (aPCA) (normalised: wild type 0, dead -1); higher = more abundant; growth selection in yeast, the domain comes from the species named
Details: Homo sapiens

Row | Variant | abundance fitness
1 | EQRVMAWYDFQARSPREVTMKKGDVLTLLSSINKDWWKVEAADHQGIVPAVYVRRLAH | -0.716 ± 0.22
2 | EQRVMAMYDFQARSPREVTMKKGDVLTLLSSINKDWWKVEAADHQGIVPAVYVRRLAH | -0.049 ± 0.14
3 | EQRVMADYDFQARSPREVTMKKGDVLTLLSSINKDWWKVEAADHQGIVPAVYVRRLAH | -0.135 ± 0.48
4 | EQRVMASYDFQARSPREVTMKKGDVLTLLSSINKDWWKVEAADHQGIVPAVYVRRLAH | -0.85 ± 0.29
5 | EQRVMARYDFQARSPREVTMKKGDVLTLLSSINKDWWKVEAADHQGIVPAVYVRRLAH | -0.686 ± 0.14
6 | EQRVMAHYDFQARSPREVTMKKGDVLTLLSSINKDWWKVEAADHQGIVPAVYVRRLAH | -1.18 ± 0.43
7 | EQRVMAKYDFQARSPREVTMKKGDVLTLLSSINKDWWKVEAADHQGIVPAVYVRRLAH | -0.176 ± 0.35
8 | EQRVMAAYDFQARSPREVTMKKGDVLTLLSSINKDWWKVEAADHQGIVPAVYVRRLAH | -0.609 ± 0.12
9 | EQRVMAPYDFQARSPREVTMKKGDVLTLLSSINKDWWKVEAADHQGIVPAVYVRRLAH | -0.76 ± 0.14
10 | EQRVMAVYDFQARSPREVTMKKGDVLTLLSSINKDWWKVEAADHQGIVPAVYVRRLAH | -0.199 ± 0.15
11 | EQRVMAGYDFQARSPREVTMKKGDVLTLLSSINKDWWKVEAADHQGIVPAVYVRRLAH | -0.559 ± 0.12
12 | EQRVMVLYDFQARSPREVTMKKGDVLTLLSSINKDWWKVEAADHQGIVPAVYVRRLAH | -0.861 ± 0.13
13 | EQRVMELYDFQARSPREVTMKKGDVLTLLSSINKDWWKVEAADHQGIVPAVYVRRLAH | -0.47 ± 0.11
14 | EQRVMQLYDFQARSPREVTMKKGDVLTLLSSINKDWWKVEAADHQGIVPAVYVRRLAH | -0.975 ± 0.2
15 | EQRVMTLYDFQARSPREVTMKKGDVLTLLSSINKDWWKVEAADHQGIVPAVYVRRLAH | -0.685 ± 0.41
16 | EQRVMGLYDFQARSPREVTMKKGDVLTLLSSINKDWWKVEAADHQGIVPAVYVRRLAH | -0.76 ± 0.14
17 | EQRVMRLYDFQARSPREVTMKKGDVLTLLSSINKDWWKVEAADHQGIVPAVYVRRLAH | -0.767 ± 0.17
18 | EQRVMWLYDFQARSPREVTMKKGDVLTLLSSINKDWWKVEAADHQGIVPAVYVRRLAH | -0.754 ± 0.098
19 | EQRVMPLYDFQARSPREVTMKKGDVLTLLSSINKDWWKVEAADHQGIVPAVYVRRLAH | -0.882 ± 0.19
20 | EQRVMMLYDFQARSPREVTMKKGDVLTLLSSINKDWWKVEAADHQGIVPAVYVRRLAH | -0.915 ± 0.3
21 | EQRVMLLYDFQARSPREVTMKKGDVLTLLSSINKDWWKVEAADHQGIVPAVYVRRLAH | -0.886 ± 0.12
22 | EQRVMKLYDFQARSPREVTMKKGDVLTLLSSINKDWWKVEAADHQGIVPAVYVRRLAH | -0.73 ± 0.28
23 | EQRVMCLYDFQARSPREVTMKKGDVLTLLSSINKDWWKVEAADHQGIVPAVYVRRLAH | -0.048 ± 0.27
24 | EQRVMNLYDFQARSPREVTMKKGDVLTLLSSINKDWWKVEAADHQGIVPAVYVRRLAH | -0.44 ± 0.37

Row | Variant | abundance fitness
25 | EQRVMSLYDFQARSPREVTMKKGDVLTLLSSINKDWWKVEAADHQGIVPAVYVRRLAH | -0.496 ± 0.26
26 | EQRVMYLYDFQARSPREVTMKKGDVLTLLSSINKDWWKVEAADHQGIVPAVYVRRLAH | -0.794 ± 0.31
27 | EQRVQALYDFQARSPREVTMKKGDVLTLLSSINKDWWKVEAADHQGIVPAVYVRRLAH | -0.383 ± 0.21
28 | EQRVGALYDFQARSPREVTMKKGDVLTLLSSINKDWWKVEAADHQGIVPAVYVRRLAH | -0.813 ± 0.092
29 | EQRVWALYDFQARSPREVTMKKGDVLTLLSSINKDWWKVEAADHQGIVPAVYVRRLAH | -0.85 ± 0.17
30 | EQRVEALYDFQARSPREVTMKKGDVLTLLSSINKDWWKVEAADHQGIVPAVYVRRLAH | 0.081 ± 0.15
31 | EQRVVALYDFQARSPREVTMKKGDVLTLLSSINKDWWKVEAADHQGIVPAVYVRRLAH | 0.422 ± 0.056
32 | EQRVKALYDFQARSPREVTMKKGDVLTLLSSINKDWWKVEAADHQGIVPAVYVRRLAH | -0.201 ± 0.39
33 | EQRVAALYDFQARSPREVTMKKGDVLTLLSSINKDWWKVEAADHQGIVPAVYVRRLAH | -0.587 ± 0.14
34 | EQRVSALYDFQARSPREVTMKKGDVLTLLSSINKDWWKVEAADHQGIVPAVYVRRLAH | -0.344 ± 0.15
35 | EQRVCALYDFQARSPREVTMKKGDVLTLLSSINKDWWKVEAADHQGIVPAVYVRRLAH | -0.516 ± 0.18
36 | EQRVNALYDFQARSPREVTMKKGDVLTLLSSINKDWWKVEAADHQGIVPAVYVRRLAH | -0.512 ± 0.48
37 | EQRVIALYDFQARSPREVTMKKGDVLTLLSSINKDWWKVEAADHQGIVPAVYVRRLAH | 0.162 ± 0.14
38 | EQRVTALYDFQARSPREVTMKKGDVLTLLSSINKDWWKVEAADHQGIVPAVYVRRLAH | -0.242 ± 0.14
39 | EQRVMALYGFQARSPREVTMKKGDVLTLLSSINKDWWKVEAADHQGIVPAVYVRRLAH | -0.652 ± 0.11
40 | EQRVMALYEFQARSPREVTMKKGDVLTLLSSINKDWWKVEAADHQGIVPAVYVRRLAH | -1.01 ± 0.41
41 | EQRVMALYAFQARSPREVTMKKGDVLTLLSSINKDWWKVEAADHQGIVPAVYVRRLAH | -0.166 ± 0.15
42 | RQRVMALYDFQARSPREVTMKKGDVLTLLSSINKDWWKVEAADHQGIVPAVYVRRLAH | -0.215 ± 0.35
43 | GQRVMALYDFQARSPREVTMKKGDVLTLLSSINKDWWKVEAADHQGIVPAVYVRRLAH | -0.425 ± 0.088
44 | DQRVMALYDFQARSPREVTMKKGDVLTLLSSINKDWWKVEAADHQGIVPAVYVRRLAH | 0.242 ± 0.32
45 | EQEVMALYDFQARSPREVTMKKGDVLTLLSSINKDWWKVEAADHQGIVPAVYVRRLAH | -0.582 ± 0.38
46 | EQWVMALYDFQARSPREVTMKKGDVLTLLSSINKDWWKVEAADHQGIVPAVYVRRLAH | -0.209 ± 0.26
47 | EQKVMALYDFQARSPREVTMKKGDVLTLLSSINKDWWKVEAADHQGIVPAVYVRRLAH | 0.226 ± 0.099
